From the Human Domainome abundance scans (Beltran et al. 2025)
± gives the uncertainty stated by the source.

B1: Ras GTPase-activating protein 1, residues 281 to 341; numbered along this chain, P20936 (parent)
chain: RRRVRAILPYTKVPDTDEISFLKGDMFIVHNELEDGWMWVTNLRTDEQGLIVEDLVEEVGR

Variants of: B1
Assay: abundance fitness (aPCA) (normalised: wild type 0, dead -1); higher = more abundant; growth selection in yeast, the domain comes from the species named
Conditions: Homo sapiens
In the case of RRRVRAILPYTKVPDTDEISFLKGDMFIVHNELEDHWMWVTNLRTDEQGLIVEDLVEEVGR [G36H], the abundance fitness is reported as -0.161 ± 0.034.
For RRRVRAILPYTKVPDTDEISFLKGDMFIVHNELEDVWMWVTNLRTDEQGLIVEDLVEEVGR [G36V], the abundance fitness was -0.876 ± 0.044.
For RRRVRAILPYTKVPDTDEFSFLKGDMFIVHNELEDGWMWVTNLRTDEQGLIVEDLVEEVGR [I19F], the abundance fitness was -0.943 ± 0.061.
RRRVRAILPYTKVPDTDEISMLKGDMFIVHNELEDGWMWVTNLRTDEQGLIVEDLVEEVGR [F21M] gave an abundance fitness of -0.538 ± 0.039.
RRRVRAILPYTKVPDTDEISELKGDMFIVHNELEDGWMWVTNLRTDEQGLIVEDLVEEVGR [F21E] gave an abundance fitness of -0.866 ± 0.063.
Variant RRRVRAILPYTKVPDTDEISFLKGDMFIVHNELEDGWMWPTNLRTDEQGLIVEDLVEEVGR [V40P] has an abundance fitness of -0.77 ± 0.073.
With RRRVRAILPYTKVPDTDEISFLKGDMFIVHNELEDGWMWVTNLRTDEQGLIVEDLVEFVGR [E58F] the abundance fitness was -0.285 ± 0.03.
For RRRVRAILPYTKVPDTDEISFLKGDMFIVHNELEDGWMWVTNLRTDEQGLIVEDLVERVGR [E58R], the abundance fitness was -0.171 ± 0.035.
RRRVRAILPYTKVPDTDEISFLKGDMFIVHNELEDGWMWVTNLRTDEAGLIVEDLVEEVGR [Q48A] gave an abundance fitness of -0.073 ± 0.031.
Variant RRRVRAIEPYTKVPDTDEISFLKGDMFIVHNELEDGWMWVTNLRTDEQGLIVEDLVEEVGR [L8E] has an abundance fitness of -0.067 ± 0.062.
In the case of RRRVRAILPYTKVPDTDEISFLKGDMFIVHNELEDGWMWVTNLRTDEQGLIVEDLVEEEGR [V59E], the abundance fitness is reported as 0.011 ± 0.053.
In the case of RRRVRAILPYTKVPDTDEISFLKGDMFIVHNELEDGWMWVTNLRTDEQGLIVEDLVEETGR [V59T], the abundance fitness is reported as -0.113 ± 0.031.
Variant RRRVRAILPYTKVPDTDEISFLKGDMFIVHNELEDGWMWVTNLRTDEQGLIVEDLVEEDGR [V59D] has an abundance fitness of -0.067 ± 0.033.
Work on RRRVRAILPYTKVPDTDEISFLKGDGFIVHNELEDGWMWVTNLRTDEQGLIVEDLVEEVGR [M26G] yielded an abundance fitness of -0.416 ± 0.03.
RRRVRAILPYTKVPDTDEISFLKGDPFIVHNELEDGWMWVTNLRTDEQGLIVEDLVEEVGR [M26P] showed an abundance fitness of -0.325 ± 0.047.
RRRVRAILPYTKVPDTDEISFLKGDMFIVHNELEDGWMWVTNLRTDEQGLIVEQLVEEVGR [D54Q] showed an abundance fitness of 0 ± 0.075.
For RRRVRAILPYTKVPDTDEISFLKGDMFIVHNELEDGWMWVTNLRTDEQGLIVADLVEEVGR [E53A], the abundance fitness was -0.027 ± 0.032.
For RRRVRAILPYTKVPDTDEISFLKGDMFIVHNELEDGWMWVTNLRTDEQGLIVFDLVEEVGR [E53F], the abundance fitness was -0.337 ± 0.03.
RRRVRAILPYTKVPDTDEIIFLKGDMFIVHNELEDGWMWVTNLRTDEQGLIVEDLVEEVGR [S20I] gave an abundance fitness of -0.844 ± 0.053.
RRRVRAILPYTKVPDTDEIKFLKGDMFIVHNELEDGWMWVTNLRTDEQGLIVEDLVEEVGR [S20K] showed an abundance fitness of -0.853 ± 0.12.
In the case of RRRVRAILPYTKVPDTDEILFLKGDMFIVHNELEDGWMWVTNLRTDEQGLIVEDLVEEVGR [S20L], the abundance fitness is reported as -1.07 ± 0.095.
With RRRVRAILPYTKVPDTDEISFLKGDMFIVHNELEDGWMWVTNLRTDEQGLIVEDLTEEVGR [V56T] the abundance fitness was -0.013 ± 0.032.
Variant RRRVRAILPYTKVPDTDEISFLKGDMFIVHNELEDGWMWVTNLRTDEQGLIVEDLGEEVGR [V56G] has an abundance fitness of -0.85 ± 0.046.
Variant RRRVRAILPYTKVPDTDEISFLKGDMFIVHNELEDGWMWVTNLRTDEQGLIVEDLLEEVGR [V56L] has an abundance fitness of -0.711 ± 0.038.
In the case of RRRVRAILPYTKVPDTDEISFLKGDMFIVHNELEDGWMWVTNLRTDEQGLIVEDLWEEVGR [V56W], the abundance fitness is reported as -0.844 ± 0.086.
In the case of RRRVRAILPYTKVPDTDEISFLKGDMFIVHNVLEDGWMWVTNLRTDEQGLIVEDLVEEVGR [E32V], the abundance fitness is reported as -0.018 ± 0.026.
RRRVRAILPYTKVPDTDEISFLKGDMFIVHNDLEDGWMWVTNLRTDEQGLIVEDLVEEVGR [E32D] gave an abundance fitness of -0.026 ± 0.028.
RRRVRAILPYTKVPDTDEISFLKGDMFIVHNGLEDGWMWVTNLRTDEQGLIVEDLVEEVGR [E32G] showed an abundance fitness of -0.299 ± 0.029.
RRRVRAILPYTKVPDTDEISFLKGDMFIVHNSLEDGWMWVTNLRTDEQGLIVEDLVEEVGR [E32S] gave an abundance fitness of -0.019 ± 0.026.
With RRRVRAILPYTKVPDTDEISFLKGDMFIVHNELEDGWMWVTNLRTDEQGLIVEDLVNEVGR [E57N] the abundance fitness was -0.447 ± 0.047.
Work on RRRVRAILPYTKVPDTDEISFLKGDMFIVHNELEDGWMWVTNLHTDEQGLIVEDLVEEVGR [R44H] yielded an abundance fitness of -0.542 ± 0.039.
Variant RRRVRAILPYTKVPLTDEISFLKGDMFIVHNELEDGWMWVTNLRTDEQGLIVEDLVEEVGR [D15L] has an abundance fitness of -0.246 ± 0.033.
RRRVRAILPYTKVPDTDEISFLKGDMFIVHNELEDGWMWVTNLRLDEQGLIVEDLVEEVGR [T45L] gave an abundance fitness of -0.836 ± 0.042.
For RRRVRAILPYTKVPDTDEISFLKGDMFIVHNELEDGWMWVTNLRTDEQGLWVEDLVEEVGR [I51W], the abundance fitness was -0.826 ± 0.072.
Variant RRRVRAILPYTKVPDTDEISFLKGDMFIVHNELEDGWMWVTNLRTDEQGLKVEDLVEEVGR [I51K] has an abundance fitness of -1.09 ± 0.12.
RRRVRAILPYTKVPDTDEISFLKGDMFIVHNELEDGWMWVTNLRTDEQGLIVEDLVEEVDR [G60D] showed an abundance fitness of -0.063 ± 0.057.
RRRVRAILPYTKVPDTDEISFLKGDMFIVHNELEDGWMWVTNLRTDEQGLIVEDLVEEVHR [G60H] gave an abundance fitness of -0.054 ± 0.074.
Work on RRRVRAILPYTKVPDTDEISFLKGDMFIVHNELEDGWMWVTNLRTDEQQLIVEDLVEEVGR [G49Q] yielded an abundance fitness of -1.01 ± 0.12.
Work on RRRVRAILPYTKVPDTDEISFLKGDMFIVHNELEDGWMWVTNLRTDEQFLIVEDLVEEVGR [G49F] yielded an abundance fitness of -0.754 ± 0.041.
Work on RRRVRAILPYTKVPDTDEISFLKGDMFIVHNELNDGWMWVTNLRTDEQGLIVEDLVEEVGR [E34N] yielded an abundance fitness of -0.004 ± 0.032.
RRRVRAILPYTKVPDTDEISFLKGDMFIVHNELLDGWMWVTNLRTDEQGLIVEDLVEEVGR [E34L] gave an abundance fitness of -0.182 ± 0.033.
In the case of RRRVRAILPYTKVPDTDEISFNKGDMFIVHNELEDGWMWVTNLRTDEQGLIVEDLVEEVGR [L22N], the abundance fitness is reported as -0.013 ± 0.034.
Work on RRRVRAILPYTKVPDTDEISFPKGDMFIVHNELEDGWMWVTNLRTDEQGLIVEDLVEEVGR [L22P] yielded an abundance fitness of -1.15 ± 0.19.
Variant RRRVRAILPYTKVPDTDEISFQKGDMFIVHNELEDGWMWVTNLRTDEQGLIVEDLVEEVGR [L22Q] has an abundance fitness of 0.045 ± 0.13.
